These results are taken from patent US20180037638A1.

The term Kd denotes the free concentration of one partner at which half of the binding sites on the other are occupied at equilibrium, for simple one-to-one binding. A high value points to lower affinity.

In experiment [1] the target is auto-inducing peptide (AIP) 2 (Staphylococcus aureus). As to the kind of experiment: cell-based or functional assay.
The target is the same in experiment [2]. As to the kind of experiment: SPR, antibody immobilized on CM5 chip, AIP2 as analyte, 1:1 Langmuir fit. For orientation: In SPR one partner is held on a chip, and binding of the other changes the refractive index at the surface.

B1: E7 (antibody, V domains shown)
VH: EVQLVQSGAEVKKPGASVRVSCKTSGYSFTSYDINWVRQTTGQGLEWMGWVNPTSGSTGYAQKFQGRVTMTANTAINTAYMELRDLRSEDTAVYFCVRDVPFDPWGQGTLVTVSS
VL: LQSVLTQPASVSGSPGQSITISCTGTSSDVGKYTFVSWYQQHPGKAPKVMVYEVNKRPLGVSPRFSGSKSGNTAYLTISGLQAEDEADYYCSSYTSSSTVVFGGGTKLTVL
Take B1: in experiment [1], the Inhibition of AIP2 QS (IC50; nM), agr-driven YFP reporter strain USA100-AH2619 is 34.2 nM and the Inhibition of AIP2 QS (IC50; nM), agr-driven YFP reporter strain USA100-AH2625 came to 31 nM.

B2: C7 (antibody, V domains shown)
VH: EVQLVQSGAEMKKPGASMKVSCKTSGYTFARKYMHWLRQAPGQGLEWMGIINPTGGTKSYAPKFQGRVTMTSDMSTNTVYMELNSLRSEDTAVYYCVSDDEEPVWGQGTMVTVSS
VL: QSALTQPPSVSKGLRQTATLTCTGNSNNVGSQGAAWLQQHQGHPPKVLSYRNNNRPSGISERFSASRSGNTASLTITGLQPEDEGDYYCSAWDSSLSAPVFGGGTKLTVL
In experiment [1], B2 registered an Inhibition of AIP2 QS (IC50; nM), agr-driven YFP reporter strain USA100-AH2619 of 33.7 nM and an Inhibition of AIP2 QS (IC50; nM), agr-driven YFP reporter strain USA100-AH2625 of 31.2 nM.

B3: D3 (antibody, V domains shown)
VH: EVQLVQSGAEVKKPGSSVKVSCKAYGGTFGSYGVSWVRRAPGQGLEWMGRLIPIFGTRDYAQKFQGRVTLTADESTNTAYMELSSLRSEDTAVYYCARDGDYYGSGSYYGMDVWGQGTLVTVSS
VL: SYELTQPPSASGSPGQSVTISCTGTSSDVGGYNYVSWYQQHPGKAPKVMIYEVSKRPSGVSNRFSGSKSGNTASLTISGLQAEDEADYYCSSYTSSSTHVVFGGGTKVTVL
Consider B3, for which the dissociation constant (Kd) in experiment [2] is 49 nM.
